± gives the half width of the 95% confidence interval.
Tests used:
[1] = folding stability dG unfold (combined trypsin and chymotrypsin); higher = more stable
Procedure, shortened: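 Only designs with AlphaFold2 dimer inter-PAE above 15 were retained; each was a mini-protein under 80 residues with no cysteine, in a PA-tagged cDNA display construct. After digestion with trypsin and chymotrypsin and sequencing, K50 was inferred by Bayesian fitting of counts, and unfolding free energy was derived per protease or combined against a sequence-predicted unfolded-state K50 and a shared folded-state K50.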

[2] = folding stability dG unfold from trypsin proteolysis; higher = more stable
Experimental: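 Folding stability of de novo designed mini-proteins (<80 aa, no Cys; designed by TrROS, TrMRF, ProteinMPNN and the joint model) was measured by cDNA display proteolysis with trypsin and chymotrypsin. Each protease was used at 11 concentrations in a threefold dilution series plus a no-protease condition. K50 was inferred by Bayesian fitting of sequencing counts, and dG unfold was derived against a sequence-predicted unfolded-state K50 (Tsuboyama et al. method). Sequences shown include variable-length N-terminal GS-type padding (SAGGSAGG...) inside a display construct carrying a PA tag. Rows were kept only if the AF2 dimer inter-PAE was >15, to exclude likely homo-oligomers.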

Sequence	folding stability dG unfold [1] [kcal/mol]	folding stability dG unfold [2] [kcal/mol]
SAGGSDLITTEETFVGPGGEITLRTTTVDPKTGKTTTTTTTIPVIKGPPSDPAKIEAELKKRGIPLSAGGSA [r2_304_JUSTAS]	-0.799 ± 0.29	-0.186 ± 0.12
SAGGSEKLLEEIKEKEFNIPPFIDPKTGKEYPGAKVKVKEAKKIKDTKKIKLIVETPEGKHEFILGSAGGSA [r2_314_TrMRF]	< -1	0.324 ± 0.22
SAGGSETITIEIEINGAKIKLTFTKNEDGTLTVTAEITLPNGKKLRVTMEFDKKTKEWKITSIEPVSAGGSA [r2_402_TrROS_Hall]	> 6	4.37 ± 0.39
SAGGSGLRVGDVVEAEGVVVPDPETRLRRAVFRFPDFVVVEVVEVPEDVAPDEEIPFPVRIDAIVPSAGGSA [r2_113_TrMRF]	-0.645 ± 0.17	-0.512 ± 0.19
SAGGSIIIRGPSPDQAEEAARAFAKNFREQFPENPNMEIPVKVEYEDPENGQRQEYEAEIKIPYPDSAGGSA [r2_393_TrROS]	< -1	0.0648 ± 0.16
SAGGSMVTETLSVEETVEPLPDGLVRVPVRTEIRVTRKDPTTGKWTTELRTEEVVLVVPASGLEAASAGGSA [r2_184_JUSTAS]	0.195 ± 0.053	0.804 ± 0.02
SAGGSPIYVRIEWEPPGNGKEREKEIPIKNVDSPDQLVDEAKEEAMKDGGPIKDIEVYDPDDGRPFPLSAGG [r13_771_TrROS]	-0.192 ± 0.53	0.598 ± 0.11
SAGGSQEFKFEILVPFDSPEEAKEEAEEIAKILQDHGLDVKVKVERDPNGAVKVPPTIRVDPEDGRPLSAGG [r13_697_TrROS]	-0.236 ± 0.31	0.397 ± 0.1
SAGGSSIEEIKEALKKGYNIKITPTTGTSTLVPVEELIKDPNITPETSLSDLGIKEITLIPPKNGKLVSAGG [r13_587_JUSTAS]	-0.257 ± 0.25	0.0152 ± 0.075
SAGGSSIPRALLEAMPPDAELEFEDPSSNVRIKVTRLGPDRLEITTTVYPPGPDTPVSSETTTDPLASAGGS [r16_163_JUSTAS]	-0.124 ± 0.28	0.371 ± 0.11
SAGGSTTITVPEEELEKKTGIPLGTPPEEVARKLDPVAKVTVTAVSSEKGPNGEPKRTVTFEVTPPQLSAGG [r13_723_JUSTAS]	< -1	-0.236 ± 0.14
SAGGWRMEIEFPGINPEELRKAIAEAPGNKDVDVDVERIPKDGSVKIEMHGNNPADRKRIQKAVKKAFSAGG [r13_580_TrROS]	< -1	-0.928 ± 0.47
SAGKNPGPVLILADGGEEGVKAVAYFPDGPLETEFPGSGDIAIVIPPGLTPSDVLKAAAVALKEAAESSAGG [r19_170_TrMRF]	-0.337 ± 0.24	0.396 ± 0.037
SAGLTAKITSVTEENGTLTVTVEVTAPDGSTFTFTATFRIEPAPAPPVKVTVETDADGNVTVTVETLDSAGG [r19_172_TrROS_Hall]	> 6	5.13 ± 0.28
SAGMSLKLEVPIDGHMIEVTVHPSPPRATAKYPEFDATAEATISEPGLINLTITDPKTGKPYPLDVTLPSAG [r14_656_JUSTAS]	0.152 ± 0.1	0.621 ± 0.023
SAGMTITKTEEFPKGPGSVTRTTVTLPNGKVVVEETITLEDPSVTKTVTKTIEPADGTVLETTTTTVPASAG [r5_108_JUSTAS]	-0.418 ± 0.3	0.302 ± 0.16
SAGMTVEEVAAEIIASHPPSSTSVTLEVDVGPKPVRVTVEILPDPETGRPVPRVTVTDPNKNVTTEYVVSAG [r5_236_JUSTAS]	-0.632 ± 0.39	-0.173 ± 0.052
SAGMVKVSLEKNPNGTPVVTVDVNEEGGPPVTVTLPVDPNETLSKVSAVLKKEGYPLPAGKKISELLSSAGG [r19_263_JUSTAS]	< -1	-0.72 ± 0.25
SAGMVTFIDTTPGKAVVAVEDPATGTSRTIELDLDSPDGRPASLEEIKKVVEELVKEERPDLTVDVKLASAG [r5_293_JUSTAS]	< -1	-0.506 ± 0.15
SAGPKNAKPIGTVRIRNPNGRKINIMQWPNPIMVHIKPPDGKKREVPIRGAPMEEILDELAEDGWEVEPSAG [r5_613_TrROS]	< -1	-0.489 ± 0.63
SAGPKVVKIEFLEDNTAKITVEVGSKPVEVEVPVGSVFLIPGGEKIEVIEPGKAKVSPLPEVDVDPEKSAGG [r19_17_TrMRF]	< -1	-0.848 ± 0.33
SAGPPNMEPVETHTFPFPGKKIKIKVYRNPDGHVKIKLEDPGKKIEQSAPVPPGEPVEIPIRLPNGKPISAG [r5_878_TrROS]	< -1	-0.904 ± 0.52
SAGSAKELAKEIADTIADEMQDRHPGFKPTEVEVKEIEVNPENGWVKINIEMRFPNGKPIWKPEITIPSAGG [r19_53_TrROS]	-0.557 ± 0.25	-0.0323 ± 0.058
SAGSMTVSESTENGVRTTTVTLPSRPLTVTVTFPDGKVTATTTDPAAPEAATTTPLGTPAVETLIAELSSAG [r14_716_JUSTAS]	-0.609 ± 0.3	0.083 ± 0.051
